Results on one molecule are retold here after patent publication US20230002481A1 (Chugai, published 2023).

This assay has as its target T1, recombinant cyno C1r2s2 His/Flag tetramer (cynomolgus monkey, limits assumed).
T1 construct: Heterotetramer of two C1r-His and two C1s-Flag chains, co-expressed in FreeStyle293-F cells; also called cyno C1r2s2s
T1 chain 1: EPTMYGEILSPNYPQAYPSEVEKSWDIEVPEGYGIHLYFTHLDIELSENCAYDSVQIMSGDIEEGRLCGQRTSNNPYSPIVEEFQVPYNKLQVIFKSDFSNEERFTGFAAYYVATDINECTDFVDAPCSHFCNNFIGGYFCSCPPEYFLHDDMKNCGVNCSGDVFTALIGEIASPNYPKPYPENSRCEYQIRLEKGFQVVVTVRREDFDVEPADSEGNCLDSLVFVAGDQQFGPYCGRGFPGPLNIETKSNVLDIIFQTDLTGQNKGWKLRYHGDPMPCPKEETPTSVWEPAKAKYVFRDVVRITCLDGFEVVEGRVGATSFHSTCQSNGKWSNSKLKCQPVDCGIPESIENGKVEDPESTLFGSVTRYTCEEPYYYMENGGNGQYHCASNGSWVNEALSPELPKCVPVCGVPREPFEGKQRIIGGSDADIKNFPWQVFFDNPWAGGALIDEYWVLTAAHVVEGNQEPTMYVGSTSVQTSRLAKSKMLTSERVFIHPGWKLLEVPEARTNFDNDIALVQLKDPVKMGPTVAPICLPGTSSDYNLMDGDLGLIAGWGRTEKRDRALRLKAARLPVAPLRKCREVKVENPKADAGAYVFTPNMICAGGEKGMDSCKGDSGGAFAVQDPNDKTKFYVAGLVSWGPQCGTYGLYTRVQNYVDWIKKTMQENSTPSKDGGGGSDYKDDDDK
T1 chain 2: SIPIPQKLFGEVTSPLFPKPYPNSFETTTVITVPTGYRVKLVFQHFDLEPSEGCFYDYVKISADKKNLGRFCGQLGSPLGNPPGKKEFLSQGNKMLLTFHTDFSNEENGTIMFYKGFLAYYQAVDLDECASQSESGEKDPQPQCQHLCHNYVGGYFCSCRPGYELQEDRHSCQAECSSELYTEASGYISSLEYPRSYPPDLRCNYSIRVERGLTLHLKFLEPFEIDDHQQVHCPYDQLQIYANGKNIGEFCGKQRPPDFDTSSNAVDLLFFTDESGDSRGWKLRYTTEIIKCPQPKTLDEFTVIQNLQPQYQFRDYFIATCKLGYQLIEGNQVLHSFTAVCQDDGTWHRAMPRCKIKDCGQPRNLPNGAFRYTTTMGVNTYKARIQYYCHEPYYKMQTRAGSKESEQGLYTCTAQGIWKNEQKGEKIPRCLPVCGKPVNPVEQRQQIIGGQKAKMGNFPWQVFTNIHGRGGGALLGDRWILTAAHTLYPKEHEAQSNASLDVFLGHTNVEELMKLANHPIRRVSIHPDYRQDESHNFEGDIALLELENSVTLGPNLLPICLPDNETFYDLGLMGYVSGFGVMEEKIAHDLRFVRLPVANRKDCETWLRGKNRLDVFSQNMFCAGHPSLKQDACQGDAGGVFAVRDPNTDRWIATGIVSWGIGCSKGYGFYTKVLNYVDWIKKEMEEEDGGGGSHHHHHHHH
In words: SPR (Biacore), antibody captured on ProA/G, antigen as analyte, 37 C, pH5.8, 1.2 mM CaCl2; pH 5.8. The method, then: The kinetic parameters of anti-C1s antibodies against recombinant human C1s (as described in PCT/JP2018/042054), human C1r2s2, and cyno C1r2s2 His/Flag (also referred as cyno C1r2s2 in the Table and Figures) were assessed at pH7.4 and pH5.8, at 37 degrees C. using BIACORE (registered trademark) T200 instrument (GE Healthcare) or BIACORE 4000 (GE Healthcare). ProAG (Pierce) was immobilized onto a CM4 sensorchip using amine coupling kit (GE Healthcare) according to the recommended settings by GE Healthcare. Antibodies and analytes were diluted into the respective running buffers, ACES pH7.4 and pH5.8 (20 mM ACES, 150 mM NaCl, 1.2 mM CaCl₂, 1 mg/ml BSA, 1 mg/ml CMD, 0.05% Tween 20, 0.005 w/v % NaN₃). Each antibody was captured onto the sensor surface by ProA/G. Antibody capture levels were typically 100-200 resonance units (RU). Then, recombinant C1s was injected at concentrations of 25 and 50 nM followed by dissociation at pH7.4 and pH5.8. The surface was regenerated using 10 mM Glycine-HCl, pH1.5. Kinetic parameters at neutral pH conditions and acidic conditions were determined by fitting the sensorgrams with 1:1 binding model using BIACORE (registered trademark) T200 Evaluation software, version 2.0 (GE Healthcare) or BIACORE 4000 Evaluation software. The dissociation rate at pH5.8 (after dissociation at pH7.4, indicated as pH5.8* in TABLE 2) was determined by processing and fitting data using Scrubber 2.0 (BioLogic Software) curve fitting software. The association rate (ka), dissociation rate (kd), binding affinity (KD) at pH7.4 and pH5.8 condition, and dissociation rate (kd) at pH5.8* condition of the antibodies are listed in TABLE 2. Some kinetic parameters of COS0098pHv1 in acidic condition were not correctly calculated because of its weak binding response.
Also, to observe the cross-reactivity of anti-C1s antibodies against human C1r2s2 and cyno C1r2s2 (cyno C1r2s2 His/Flag), BIACORE (registered trademark) kinetics analysis was performed.
On the technique in general: Surface plasmon resonance follows binding to a sensor surface in real time, without labels.

B1: COS0098bb (antibody, V domains shown)
VH: QSVEESGGRLVTPGTPLTLTCTVSGFSLTKYTVSWVRQAPGKGLEWIGIINTGGSAYYATWAKGRFTFSKTSTTVDLQITSPTTEDTATYFCARGNGDTDYTNLWGPGTLVTVSS
VL: QVLTQTPSSVSEPVGGTVTINCQASENIYSALAWYQQKPGQPPKLLIYGASNLESGVPSRFKGSGSGTQFTLTISDLECADAATYYCQQYYFTSSTFGGGTKVEIK
notes: Anti-C1s rabbit antibody, parent of COS0098pHv1; the antibody was captured by ProA/G; also called anti-C1s antibody COS0098bb
On to B1, for which the Kd came to 0.894 nM, the koff stood at 0.00105 s⁻¹ and the kon worked out at 1.17e+06 M⁻¹ s⁻¹.

The term Kd denotes the concentration at which binding is half-saturated. Usually koff stands for a measure of how fast the partners let go of each other. The term kon denotes the second-order rate constant of association.
